{"source": "patent US12161729B2", "about": "“Methods and compositions for visualizing a ureter in a surgical procedure” (ALUME BIOSCIENCES, INC., priority 2021, dated 2024)", "key": {"nerve": {"tested_on": "nerve", "conditions": "cited from earlier work; for nerve detection following intravenous administration: rodent models"}, "[1]": {"tested_on": "rat sciatic and prostate nerves", "conditions": "several hours after intravenous administration; cited from earlier work"}, "[2]": {"tested_on": "human resected nerve tissues", "conditions": "human tissue, topical administration; cited from earlier work"}, "[3]": {"tested_on": "rodent resected nerve tissues", "conditions": "rodent tissue, topical administration; cited from earlier work"}, "[4]": {"conditions": "in vivo; cited from earlier work"}, "ureter [5]": {"tested_on": "ureter", "test": "Fluorescent visualization of the ureter after intravenous administration, mouse model", "type": "in vivo", "description": "FIG. 1: Bright field and fluorescence overlay image of a ureter in a living wild type mouse following intravenous administration of about 2000 nanomoles of a fluorescent conjugate (SEQ ID NO:747). Images were obtained 2 hours following administration using a customized fluorescence detection microscope. Left panel: White reflectance image. Right panel: fluorescence overlay.\n(§1) A rodent model was to use to evaluate the dynamics of fluorescent visualization of 5-FAM-QVPWEEPYYVVKKSSGG-NH2 (HNP401-N-2 with GG linker; SEQ ID NO:747) following intravenous administration. The conjugate was administered in a wide range of amounts and fluorescence was detected using a customized microscope. […] Rather it reflects fluorescence of urine flowing down the ureter from the kidney to the bladder."}, "ureter [6]": {"tested_on": "ureter", "test": "Time course of ureter illumination in rodent models", "type": "in vivo", "conditions": "rodent model", "description": "as §1\nThese include molecules consisting of related HNP401 peptides conjugated to FAM, as well as molecules consisting of related HNP401 peptides conjugated to other fluorescent moieties. In addition, the studies presented here allow concurrent visualization of nerves in conjunction with ureters."}, "[7]": {"test": "Bioanalysis of fluorescent conjugate in the urine of surgery patients (LC-MS/MS)", "type": "in vivo, human", "conditions": "for Test Drug (ng/mL) in urine / level at 30 min after infusion: 500 mg intravenous; for level at 30 min after infusion: human, urine, iv, 500 mg, read-out: Test Drug (ng/mL) in urine", "description": "Urine samples were collected 30 minutes before intravenous administration of 500 mg of parent test drug (corresponding to the fluorescent-conjugated peptide, SEQ ID NO:747), 30 minutes after infusion prior to head and neck surgery, and 22 hours later. The concentration of intact parent test drug was determined by liquid chromatography with tandem mass spectrometry (LC-MS/MS) using a qualified bioanalytical method. Also evaluated was the presence of metabolites M3-M8 (initially identified from in vitro studies) corresponding to shortened versions of the parent peptide conjugated to the fluorescent moiety."}}, "note": "Like-named read-outs stand apart in the source and are kept apart here. Residues, ends and D or L forms follow the SMILES beside them. *: point of attachment. 5FAM = O=C1OC2(c3ccc(O)cc3Oc3cc(O)ccc32)c2ccc(C(=O)*)cc21; FAM = carboxyfluorescein"}
{"molecule": "FAM-HNP401: FAM conjugated to the C-terminal cysteine of acetylated HNP401 with GCC linker (Ac-SGQVPWEEPYYVVKKSSGGC-CONH2) (Ac-SGQVPWEEPYYVVKKSSGGC(FAM)-NH2)", "values": [{"measurement": "nerve detection following intravenous administration", "setting": "nerve", "value": "sensitive nerve detection"}, {"measurement": "fluorescence in rat sciatic and prostate nerves", "setting": "[1]", "value": "observed"}, {"measurement": "fluorescent labeling of resected nerve tissues", "setting": "[2]", "value": "fluorescent labeling"}, {"measurement": "fluorescent labeling of resected nerve tissues", "setting": "[3]", "value": "fluorescent labeling"}, {"measurement": "half-life in the blood", "setting": "[4]", "value": 15, "unit": "min"}]}
{"molecule": "FAM-NP41: carboxyfluorescein (FAM) coupled to the C-terminal lysine of acetylated NP41 (Ac-SHSNTQTLAKAPEHTGK) via a lysinamide linkage (Ac-SHSNTQTLAKAPEHTGK(FAM)-NH2) [reference compound]", "values": [{"measurement": "half-life of nerve fluorescence", "setting": "nerve; in vivo", "value": "about 50 minutes"}, {"measurement": "persistence of fluorescence in tissues", "setting": "nerve; in vivo", "value": "persist at a low level in tissues for hours"}, {"measurement": "nerve detection following intravenous administration", "setting": "nerve", "value": "sensitive nerve detection"}, {"measurement": "fluorescent labeling of resected nerve tissues", "setting": "[2]", "value": "fluorescent labeling"}, {"measurement": "fluorescent labeling of resected nerve tissues", "setting": "[3]", "value": "fluorescent labeling"}, {"measurement": "serum half-life (as measured by serum fluorescence)", "setting": "[4]", "value": "about ten"}]}
{"molecule": "CC(C)[C@H](NC(=O)[C@H](Cc1ccc(O)cc1)NC(=O)[C@H](Cc1ccc(O)cc1)NC(=O)[C@@H]1CCCN1C(=O)[C@H](CCC(=O)O)NC(=O)[C@H](CCC(=O)O)NC(=O)[C@H](Cc1c[nH]c2ccccc12)NC(=O)[C@@H]1CCCN1C(=O)[C@@H](NC(=O)[C@H](CCC(N)=O)NC(=O)c1ccc2c(c1)C(=O)OC21c2ccc(O)cc2Oc2cc(O)ccc21)C(C)C)C(=O)N[C@H](C(=O)N[C@@H](CCCCN)C(=O)N[C@@H](CCCCN)C(=O)N[C@@H](CO)C(=O)N[C@@H](CO)C(=O)NCC(=O)NCC(N)=O)C(C)C", "note": "[SEQ ID NO:747, 5-FAM-QVPWEEPYYVVKKSSGG-NH2] (5FAM-QVPWEEPYYVVKKSSGG-NH2)", "values": [{"measurement": "ureter illumination (fluorescence)", "setting": "ureter [5]; 2 hours following intravenous administration of about 2000 nanomoles (~200 mg/kg)", "value": "readily illuminated"}, {"measurement": "ureter illumination (fluorescence)", "setting": "ureter [5]; intravenous, 100 nanomoles to 2000 nanomoles (~10 mg/kg to ~200 mg/kg)", "value": "revealed ureter illumination"}, {"measurement": "time at which fluorescent visualization of the ureter was first observed following conjugate administration", "setting": "ureter [6]; early observation", "value": "less than 1 hour"}, {"measurement": "time up to which fluorescent visualization of the ureter was observed following conjugate administration", "setting": "ureter [6]; extended time course", "value": "at least 6 hours"}, {"measurement": "detection in urine, number of subjects", "setting": "[7]; 30-minute time-point, test drug or fluorescent metabolites, five subjects evaluated", "value": "detected in four of five subjects"}, {"measurement": "Test Drug (ng/mL) in urine", "setting": "[7]; Subject 1, 30 min after infusion", "value": "BQL* (BQL: Below Quantitation Limit (10 ng/ml))"}, {"measurement": "Test Drug (ng/mL) in urine", "setting": "[7]; Subject 2, 22 hours", "value": "BQL (BQL: Below Quantitation Limit (10 ng/ml))"}, {"measurement": "Test Drug (ng/mL) in urine", "setting": "[7]; Subject 3, 22 hours", "value": "BQL (BQL: Below Quantitation Limit (10 ng/ml))"}, {"measurement": "Test Drug (ng/mL) in urine", "setting": "[7]; Subject 4, 30 min after infusion", "value": "BQL (BQL: Below Quantitation Limit (10 ng/ml))"}, {"measurement": "level at 30 min after infusion", "setting": "[7]; Subject 2, 30 min after infusion", "value": 11.5, "unit": "ng/mL"}, {"measurement": "level at 30 min after infusion", "setting": "[7]; Subject 3, 30 min after infusion", "value": 19, "unit": "ng/mL"}, {"measurement": "level at 30 min after infusion", "setting": "[7]; Subject 5, 30 min after infusion", "value": 10.1, "unit": "ng/mL"}]}
